Article PMC9542132

Experiments:
[1] = molecular target: CdvB1 from Metallosphaera sedula, MBP tag cleaved off with 3C protease (Metallosphaera sedula); assay: co-sedimentation; 1 uM MBP-CdvB1 with 0.1 uM 3C protease, 50 mM HEPES pH 7.4, 50 mM NaCl, 5 mM MgCl2, Ficoll 41.25 mg/mL, overnight at 4 °C; 0.6 uM CdvC added, nucleotide or buffer, 2 min at 50 °C; 140 000 g 30 min at 4 °C; pellet and supernatant on SDS/PAGE
[2] = molecular target: CdvB1 from Metallosphaera sedula, MBP tag cleaved off with 3C protease (Metallosphaera sedula)
[3] = molecular target: CdvB1 from Metallosphaera sedula, MBP tag cleaved off with 3C protease (Metallosphaera sedula); remark: listed apart in the source

| filament-to-monomer ratio (with CdvC and ADP or ATPγS, no hydrolysable nucleotide) [1] | ATP consumed by CdvC (0.1 uM) in 25 min at 50 °C with CdvB1 filaments (1 uM) against CdvC alone [2] [fold] | filament-to-monomer (pellet-to-supernatant) ratio of CdvB1 in the sedimentation assay after CdvC with ATP, 2 min at 50 °C [3] | Molecule |
| --- | --- | --- | --- |
| 2 |  |  | CdvB1 from Metallosphaera sedula, MBP tag cleaved off with 3C protease (natural protein) |
|  | 8 | 0.1 | CdvC from Metallosphaera sedula (enzyme) MSAQVMLEEMARKYAIAAVRADKEGRREDAINNYKKAIEVLTQIVTLYPDMVARNAYEQMINEYKKRLETLNQMVPEGGEETEKAEEDIVMKEKPKVTLNEIVGLEDVKEALKEAVVYPSKRPDLFPLGWPRGILLYGPPGCGKTMIAAAVANELDSEFIHVDAASIMSKWLGEAEKNVAKIFKTARELSKKENKPAIIFIDELDALLASYTSEVGGEARVRNQFLKEMDGLADKNEISKVYVIGATNKPWRLDEPFLRRFQKRIYITLPDKAHRLELLKHYSSKVKLDPNVNLEELAELTDGYTASDIRDIVQSAHMRVVKEMFEKNLQEPRAINMDDFREVLKVRKPSVNQDMLKAYAAWHEKFKAL |
